Patent publication US11028127B2, “Peptides capable of reactivating p53 mutants” (Yeda Research and Development Co. Ltd., priority 2013, dated 2021)

Assays:
Mut-p53 (R175H p53) [1] = molecular target: T1, Mut-p53 (R175H p53) (Homo sapiens, UniProt P04637, R175H); test: p53/DNA binding ELISA kit (R&D), binding to p53-RE DNA; assay type: biochemical; conditions: H1299-R175H p53 cell extracts, vs background (NT)
T1 construct: a hot spot full length mutant p53 Mut-p53 R175H (R175H p53); expressed in transfected cells; host or cells: H1299 (p53-null) cells stably overexpressing R175H p53; cell extract
Text: A commercial p53/DNA binding kit (R&D) was used, according to manufacturer instructions. Briefly, 96 well plates were coated with anti-p53 antibody overnight. Cell extracts containing p53 were reacted with an oligonucleotide that contains a p53 consensus binding site, labeled with biotin, in the presence or absence (NT) of test peptides. WT p53 is expected to bind this DNA binding site as well as to the antibody coating the test wells of the plate. Excess p53 and oligos are washed away and streptavidin-HRP is used to quantify the amount of oligos in the well, which is proportional to the DNA bound by p53. TMB assay was performed to determine HRP levels (450 nm). The results are presented as relative absorbance (at 450 nm) (Y-Axis) of each tested sample. MCF7 and the H1299-Mut-p53 (ts) A135V cells serve as positive controls for WT p53.
For these experiments, a commercial p53/DNA binding kit of “R&D” (Cat-DYC1355-5 Lot-1273366FA) was used, in accordance with manufacturer guide lines. Briefly, 96 well plates are coated with anti-p53 antibody overnight. Cell extracts containing p53 are reacted with an oligonucleotide that contains a p53 consensus binding site (provided in the kit), labeled with biotin, in the presence or absenc.
e (NT) of test peptides. WT p53 is expected to bind this DNA binding site as well as to the antibody coating the test wells of the plate. Excess p53 and oligos were washed away and streptavidin-HRP was used to quantify the amount of oligos in the well, which is proportional to the DNA bound by p53. TMB assay was performed to determine HRP (ES001-1L-K) levels (450 nm).
To measure the effect of the tested peptides on DNA binding of Mut-p53, a commercial ELISA kit, (R&D Systems DYC1355-5, Lot-1273366FA), was used as a high-throughput assay to quantify p53 activation. This kit uses a 96-well plate format. The kit was used according to manufacturer's instructions. Wells were coated with anti-p53 antibody overnight. Cell extracts containing p53 were reacted with a biotin labeled oligonucleotide containing a p53 consensus binding site (included in the kit). WT p53 is expected to bind this oligo as well as the antibody coating the wells. Excess p53 and oligo were washed away in wash buffer (0.05% Tween 20 in PBS, pH 7.2-7.4; R&D Systems, Catalog #WA126). Then, streptavidin-HRP (R&D Systems, Part 890803, provided in the kit) was added for 15-45 min to quantify the amount of oligo in the well, which is proportional to the DNA bound by p53. If the addition of a peptide to Mut-p53 extracts increases ELISA reading compared to background, this peptide is considered as functionally effective and may be selected for further analysis. […] As with the conformational screening, MCF7 and the H1299-Mut-p53 (ts) A135V cells served as positive controls for WT p53. Extracts were added to the wells coated with αp53-Ab, and after several washing steps, streptavidin-HRP was added for 1 hour, and then plates were washed again and TMB (substrate to HRP) assay was performed.

Mut-p53 (R175H p53) [2] = molecular target: T1, Mut-p53 (R175H p53); test: Sandwich ELISA for p53 conformation (PAb1620/PAb240 reactivity); assay type: biochemical; conditions: extract of H1299 cells overexpressing R175H p53; peptide 50 ng/ml, 2 hours
Procedure: To measure the conformational effect of the peptides on Mut-p53, a micro-titer plate was coated with either PAb240, PAb1620 or pAb421 (as a positive control and standard for total p53 protein, since the antibody used recognizes both WT and mutant conformations), overnight incubated, washed, blocked, and cell extracts (with or without peptides) were added for an additional 2 hours. After removal of extracts, plates were washed and incubated with the αp53-HRP conjugated Ab for the detection of p53 levels. A TMB (substrate of HRP) assay was performed and optical density was determined at 450 nm. WT p53 served as a positive control for reactivity with PAb1620, and Mut-p53 served as a negative control. The results are presented as the ratio of absorbance between the PAb1620 or PAb240 samples and the control […] sample. MCF7 and H1299-Mut-p53 (ts) A135V (TS) cells were used as positive controls for the WT p53 conformation (1620/240 ratio equals or exceeds 5:1).
96-well plates were coated using 3 different antibodies (1 type of antibody (Ab) in each well): PAb421 recognizes both conformations of p53 and binds to a C-terminus epitope; PAb240 recognizes mutant conformation of p53, binds to epitope within the core domain (amino acids 212-217) (Stephen, C. W. and D. P. Lane, Mutant conformation of p53. Precise epitope mapping using a filamentous phage epitope library. J. Mol. Biol., 1992. 225(3): p. 577-83) which is accessible to the Ab when the protein is partially denatured (for example, when the DBD is mutated); and PAb1620, which recognizes WT conformation of p53, binds to epitope with in the core domain (aa 156, 206-210), formed when folding is in WT conformation (Wang, P. L., F. Salt, and G. Winter, The ‘wild type’ conformation of p53: epitope mapping using hybrid proteins. Oncogene, 2001. 20(18): p. 2318-24).
Wells were incubated overnight (ON) with 100 μl Ab (5 μg/ml) in room temp (RT). The liquid was discarded, and the wells were washed 3 times with Phosphate buffered saline (PBS), 200 μl per each wash. Next, blocking with 200 μl of 5% bovine serum albumin (BSA) diluted in PBS in each well for 1.5 hours at room temperature (RT) was performed. Blocking buffer was discarded, followed by 3 washes in PBS as described above. Samples of mutant and WT p53 proteins (100 μl, 10 μg/ml), together with control peptides pCAP-710 (LPNPPER, SEQ ID NO:328) and pCAP-1220 ([…], SEQ ID NO:368) (5 μg/ml, Sigma Aldrich, or with test peptides 1-153 (5 μg/ml), were incubated for 1.5 hours together, and then added to the wells. Samples were rotated and incubated for 1 hour at RT. Samples were discarded, following 4 washes as described above, using Trisphosphate buffered saline (TPBS). Next, horseradish peroxidase (HRP) conjugated streptavidin p53 antibody (10 μg/ml HAF1355 (R&D)) was added to the wells and incubated at RT for 1 hour. After the plate was washed 3 times in TPBS, TMB substrate solution (50 μl each well, Thermo, (Cat. No. ES001-1L-K)) was added and incubated at 37° c. for 20 min. The reaction was stopped with 2M sulfuric acid (50 μl). The absorbance was measured at 450 nm with a spectrophotometer. Protein concentration was determined by dividing the absorbencies of each sample to the absorbance of Ab 421 samples.
The first screening strategy was based on ELISA. A version of sandwich ELISA was used to examine the effect of the lead test peptides on p53 conformation. To measure the conformational effect of the peptides on Mut-p53, a micro-titer plate was coated with PAb240, PAb1620 or pAb421 (as a positive control), and then the reactivity of p53 to these antibodies was examined. WT p53 served as a positive control for reactivity with PAb1620, and Mut-p53 served as a negative control. To examine the effect of a tested peptide it was added to a solution containing Mut-p53 and change in reactivity to either Ab was tested. […] Several ELISA experiments using different cell extracts were performed. […]

[3] = tested on: WI-38 fibroblasts overexpressing R175H p53 (WI38-175); test: Crystal violet viability assay; assay type: cell-based; conditions: 48 hours; much more prominent than in mNoxa-i control cells
Procedure: FIGS. 13A and 13B are bar graphs illustrating the effect of various tested peptides on the viability of cells expressing Mut-p53, as determine by crystal violet assay. WI-38 fibroblasts expressing endogenous WT p53 were infected with retroviruses expressing either mouse Noxa shRNA (WI38-m-Noxa-i) as a nonspecific control or the R175H p53 mutant for stable overexpression of mutant p53 (WI38-175). The cells (WI38-m-Noxa-i or WI38-175) were seeded at 3000 cells per well in 96-well plates. Tested peptides were added to the cells. Different concentrations of etoposide (cytotoxic drug, 4′-Demethyl-epipodophyllotoxin 9-[4,6-O—(R)-ethylidene-beta-D-glucopyranoside], 4′-(dihydrogen phosphate) were used as positive control for cell death and as a standard reference curve to assess the effect of tested peptides. 48 hours after treatment, cells were washed with PBS to exclude dead cells and debris, and cells that remained attached to the plate were stained with crystal-violet for 30 minutes. Crystal violet was removed and cells were washed 4 times with PBS to remove residual crystal violet. Then, the stained cells were dissolved in 10% acetic acid and plates were taken for optical density measurement at 595 nM (optimal for crystal violet). The bar graphs of FIGS. 13A and 13B show the optical density reads at 595 nm, which reflect the number of cells in the plate after treatment, normalized to the non-treated (NT) samples.
Cells were cultured in 96 wells plates with 2500-4000 cells/well in 0.1 ml and incubated overnight at 37° C. in order to adhere to the plate. Serial dilutions of different peptides (0.5 μg/ml) were added in 0.1 ml aliquots and the plates incubated for additional 48 h at 37° C. Then medium was removed and cell lysis was determined by staining the cells with crystal violet (0.5%) in methanol/water (1:4, v/v), 50 μl each well, for 10 min, followed by 3 washes with PBS. Afterwards, 10% acetic acid (50 μl) was added to each well and shaken for 10 min. Then, automatic plate reading was performed at 595 nm.
An important indication for the reactivating peptides activity is their effect in-vivo on cancer cells that express Mut-p53. In particular, reactivating peptides that can cause specifically Mut-p53-dependent death of cancer cells, with minimal toxic effects on normal cells are desired. A crystal-violet based viability assay, in which crystal-violet is employed to stain cells that adhere to the plate and therefore the amount of dye is proportional to cell number was used to determine the effect of the various test peptides on Mut-p53-dependent death.
Cells were plated in 96-well plates, at calibrated density that allows them to grow for 48 hours without reaching confluence. Peptides are added 6 hours later. Different concentrations of etoposide (cytotoxic drug) were used as positive control for cell death and as a standard reference curve to assess the effect of tested peptides. 48 hours after treatment, cells were washed with PBS to exclude dead cells and debris, and cells that remained attached to the plate were stained with crystal-violet for 30 minutes. Crystal-violet was removed and cells were washed with PBS 4 times to eliminate remains of crystal-violet. Then, the stained cells were dissolved in 10% acetic acid and plates were taken for optical density measurement at 595 nM (specific to crystal-violet).
FIGS. 13A and 13B illustrate a representative experiment of screening performed on 128 synthesized peptides. In this experiment, WI-38 fibroblasts were used. These cells express endogenous WT p53 and were further infected with a virus expressing either mouse Noxa shRNA, as a nonspecific control or the R175H p53 mutant for stable overexpression of mutant p53. Both of these sub-lines (mNoxa or R175H p53) were seeded at 3000 cells per well and treated as described above. […]

Sequence	binding of H1299-R175H p53 extracts to p53-RE DNA (Mut-p53 (R175H p53) [1])	reactivity of R175H Mut-p53 towards PAb1620 and PAb240 (conformational change) (Mut-p53 (R175H p53) [2])	reduction in cell numbers, R175H p53 expressing WI-38 cells [3]
ATQHHYIK [pCAP-93]	elevate the binding of H1299-R175H p53 extracts to p53-RE DNA	–	–
TLYLPHWHRH [pCAP-47]	–	increased reactivity of R175H Mut-p53 towards PAb1620 and decreased reactivity towards PAb240	significant reduction in cell numbers
YPTQGHLR [pCAP-36]	–	increased reactivity of R175H Mut-p53 towards PAb1620 and decreased reactivity towards PAb240	significant reduction in cell numbers
HSSHHHPVHSWN [pCAP-83]	elevate the binding of H1299-R175H p53 extracts to p53-RE DNA	–	–
SFILFIRRGRLG [pCAP-60]	–	increased reactivity of R175H Mut-p53 towards PAb1620 and decreased reactivity towards PAb240	significant reduction in cell numbers
WNHHHSTPHPAH [pCAP-97]	elevate the binding of H1299-R175H p53 extracts to p53-RE DNA	–	significant reduction in cell numbers
